T1: recombinant murine MOG protein (murine, UniProt Q61885 29-156, limits assumed)
T1 construct: Bought recombinant protein; also called MMOG
T1 sequence (looked up): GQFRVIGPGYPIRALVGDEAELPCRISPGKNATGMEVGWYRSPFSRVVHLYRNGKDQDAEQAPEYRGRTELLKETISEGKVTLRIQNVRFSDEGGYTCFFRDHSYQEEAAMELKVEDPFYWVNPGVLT

T2: recombinant human MOG protein (human, UniProt Q16653 30-154, limits assumed)
T2 construct: Bought recombinant protein; also called HMOG
T2 sequence (looked up): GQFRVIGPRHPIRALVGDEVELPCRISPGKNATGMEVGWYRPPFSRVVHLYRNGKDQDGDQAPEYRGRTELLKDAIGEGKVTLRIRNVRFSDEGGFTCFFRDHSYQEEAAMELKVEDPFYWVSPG


Tests used:
[1] = biological target: T1, recombinant murine MOG protein; assay: phage-scFv ELISA on coated recombinant murine MOG (0.5 µg/well), anti-M13 HRP, OD450 over BSA background
Experimental: (§1) The binding characteristics of the scFvs expressed on the surface of the phages isolated during the screening were determined using an ELISA assay using the recombinant MOG protein (R&D system). Along with the selected clones, phage-scFv-8-18C5 is expressed to serve as a positive control for ELISA. Briefly, phage-scFv were produced in the form of clones isolated on a 96-well plate in 800 μl of 2YT/ampicillin/glucose cultures infected with the helper phage M13K07 (as described previously). The phages produced overnight at 26° C. were then recovered in the supernatants after 30 minutes of centrifugation at 3000 g. These supernatants were directly diluted 1/2 in PBS/4% BSA/0.1% Tween 20 and tested on Maxisorp immunoplates previously coated with 0.5 μg of human or murine MOG or PBS (background control (bdf) in BSA)/well and blocked with 4% BSA in PBS. After incubation for 2 hours at 37° C., the wells were washed 3 times with PBS/0.1% Tween-20 and bound phages-scfv were detected with anti-M13 HRP antibody (GE Healthcare). The plate is read at 450 nm (OD) on a plate reader (TECAN). The results are expressed as a ratio: OD on target/OD bdf (OD on an uncoated plate saturated with BSA) and the ratios are compared with that obtained for the positive control.

[2] = biological target: T2, recombinant human MOG protein; assay: phage-scFv ELISA on coated recombinant human MOG (0.5 µg/well), anti-M13 HRP, OD450 over BSA background
Experimental: as §1

| Binder | ratio OD on target/OD bdf [1] [ratio] | ratio OD on target/OD bdf [2] [ratio] |
| --- | --- | --- |
| anti-MOG MO3I-30 antibody (scFv, V domains shown) VH: EVQLLESGGGLVQPGGSLRLSCVASGFTFRSYWMHWVRQDPGEGLVWVSRVSGDGSSTNYADSVKGRFVISRDNAKDTLYLQMYSLRGEDTAVYYCLRGNDGYGNFDYWGQGTTVTVSS VL: DVVMTQSPLSLPVTLGQPASISCRPSQSLVYSDGNTYLNWFQQRPGQSPRRLIYKVSNRDYVVPDRFSGSGSGTDFTLKISRVEAEDVGVYYCMQGTHWPLTFGGGTKVEIK | 2.19 | 2.86 |
| anti-MOG MO3J-43 antibody (scFv, V domains shown) VH: EVQLVESGGGLVKPGGSLRLSCAASGFTFSDYYMSWIRQAPGKGLEWVSYISSSGNTIYYADSVKGRFTISRDNAKNSLYLQMNSLRAEDTAVYYCAKDSPVPTVWGQGTLVTVSS VL: QSVVTQPPSVSGAPGQRVSISCTGGSSNIGADYDVHWYQQLPGTAPKLLIYGNNNRPSGVPDRFSGSKSGTSASLAISGLQPEDEAVYYCQSYDSGLRSSVFGGGTKLTVL | 8.26 | 20.8 |
| anti-MOG MO3I-63 antibody (scFv, V domains shown) VH: QVQLVQSGAEVKTPGASVKISCKASGYAFTSYAMHWVRAPGQGLEWMGWINAANANTKYSQRFQGRVTITRDTSASTAYMELNSLRSEDTAVYYCASSEDISRSNYYNYYMDVWGKGTTVTVSS VL: DIVMTQSPSSLSASVGDRVTITCRASQTITTSLAWFQHRPGKAPKLLIYSASSLQSGVPSRFSGSGSGTDFTLTISSLQPEDFATYSCQQTYSAPPTFGGGTKVEIK | 5.55 | 2.66 |
| anti-MOG MO3J-52 antibody (scFv, V domains shown) VH: QMQLVQSGAEVKKPGSSVKVSCKASGGTFSSYAISWVRQAPGQGLEWMGGIIPIFGTANYAQKFQGRVTITADESTSTAYMELSSLRSEDTAVYYCARAREGLLVNYYGMDVWGQGTLVTVSS VL: DIQMTQSPSTLSASVGDRVTTTCRASQGISNYLAWFQQKPGKAPKSLIYAASSLQSGVPSRFSGGGSGTDFTLTINSLQPEDFATYYCLHDYNYPTFGQGTKVEIK | 6.86 | 16.3 |
| anti-MOG MO3I-33 antibody (scFv, V domains shown) VH: DQVQLVQSGAEVKPGATVKISCKVSGYTFTDYYMHWVQQAPGKGLEWMGLVDPEDGETIYAEKFQGRVTITADTSTDTAYMELSSLRSEDTAVYYCATSYHGTSGFDYWGQGTLVTVSS VL: QSVVTQPPSVSGAPGQRVTIACTGSNSDIGAGHDVHWYQQFPRTAPKLIIFGNTNRPSGVPDRFSGSKSGTSASLVITGLQADDEADYHCQSYDNNLSGPIFGGGTKLTVL | 2.52 | 2.53 |
| anti-MOG MO4H-106 antibody (scFv, V domains shown) VH: QVQLVQSGAEVKKPGASVKVSCKASGYTFTTYNIHWMRQAPGQSLEWMGWISTGNGDTEYSQKLQGSVTFTRDTSASTVYMDLNSLTPGDTAVYSCARESLFVSSWYADYWGQGTLVTVSS VL: not shown | 2.78 | 2.55 |
| anti-MOG MO3I-57 antibody (scFv, V domains shown) VH: QVQLVQSGAEVKKPGASVKVSCKASGYTFSSYGISWVRQAPGQGLEWMGWISANTGNTDYAERLQGRVTMTTDTSTTTAYMELRSLRSDDTAVYYCARGAPNGYAVDYWGQGTLVTVSS VL: QSVLTQPPSASGAPGQRVSISCSGSSSNIGTNHVYWYQQFTGMAPKLIIDTNNQRPPGVPARFSGSKSGTSASLAISGLRSEDESDYYCLTWDDGLYDWVFGGGTKLTVL | 2.77 | 2.44 |
| anti-MOG MO3J-51 antibody (scFv, V domains shown) VH: EVQLVQSGAEVKKPGASVKVSCKASGYTFTSYGISWVRQAPGQGLEWMGWISAYNGNTNYAQKLQGRVTMTTDTSTSTAYMELRSLGSDDTAVYYCARNMGCSSTSCFVSWFDPWGQGTLVTVSS VL: QSVLTQPPSVSAAPGRKVTISCSGSSSNIGNNYVAWYQQLPGTAPKLLIYENNKRPSGIPGRFSGSKSATSATLGITGLQTGDEADYYCGTWDNSLSAWVFGGGTKLTVL | 4.76 | 14.6 |
| anti-MOG MO3I-34 antibody (scFv, V domains shown) VH: EVQLVQSGAEVKKPGASVKVSCKASGYTFTSYGISWVRQAPGQGLEWMGWISAYNGNTNYAQKLQGRVTMTTDTSTSTAYMELRSLRSDDTAVYYCARNMGCSSTSCFVSWFDPWGQGTLVTVSS VL: QSVLTQPPSVSAAPGQKVTISCSGSRSNIGSNYVSWYQQLPGTAPKLLIYDNTRRPSGIPDRFYGSKSGTSATLDITGLQTGDEADYHCATWDSSLSALLFGGGTKVTVL | 2.45 | 2.14 |
| anti-MOG MO3J-38 antibody (scFv, V domains shown) VH: QVQLVQSGPEVRKPGASVKVSCRASGYTFTSNDINWVRQAAGQGLEYLGWLHPKSGGTGYAQKFQGRVTMTRDTSISTAYLELSNLTSDDTAVYYCARVSFDEVIDFWGQGTLVTVSS VL: not shown | 5.59 | 18.4 |

Now from value to binder:

| ratio OD on target/OD bdf [1] [ratio] | ratio OD on target/OD bdf [2] [ratio] | Binder |
| --- | --- | --- |
| 2.75 | 2.09 | anti-MOG MO3I-60 antibody (scFv, V domains shown) VH: EVQLVESGGGLVKPGGSLGLSCAASGFTFTNAWGHWVRQAPGKGLEWVGRIKSKTDGGTTDYAAPVKDRFSISRDDSKNTLYLQMNSPTTEDTAVYYCATENGMDIVTTFDSWGQGTLVTVSS VL: AIRMTQSPSSLSASVGDRVTITCRASQSIGSYLSWYRQKPGKAPKLLIYDSSTLQSGVASRFSGSGSGTDFTLTISALQPEDFATYYCHQSYRTPLSFGGGTKVEIK |
| 4.01 | 2.04 | anti-MOG MO4H-118 antibody (scFv, V domains shown) VH: EVQLVQSGAEVKKPGASVKVSCKVSGYTLTELSMHWVRQAPGKGLEWMGGFDPEDGETIYAQKFQGRVTMTEDTSTDTAYMELSSLRSEDTAVYYCATIGPKVAAHTYYFDYWGQGTLVTVSS VL: DIQLTQSPSSLSASVGDRVTITCRASQTIVTYLNWYQQKPGKAPNLLITDASSLQSGVPSRFSGTESGTDFTLTISSLQPEDFGSYYCQSYMNPITFGQGTRLEIN |
| 6.48 | 21 | anti-MOG MO3J-40 antibody (scFv, V domains shown) VH: EVQLVESGAEVKKPGESLKISCKGSGYTFTSNWIGWVRQMPGKGLEWMGIIYPGDSDTRYSPSFQGQGTISADKSISTAYLQWSSLRASDTAMYYCARASIAVRPHIDYWGQGTLVTVSS VL: not shown |
| 6.66 | 12.9 | anti-MOG MO3J-37 antibody (scFv, V domains shown) VH: EVQLVESGGGLVQPGRSLRLSCAASGFTFDDYAMHWVRQAPGKGLEWVSGISWNSGSIGYADSVKGRFTISRDNAKNSLYLQMNSLRAEDTALYYCAKDMRAVAGTEGAFDIWGQGTMVTVSS VL: QSVVTQPPSMSAAPGQKVTISCSGSSSNIGNNYVSWYQQLPGTAPKLLIYENNKRPSGISDRFSGSKSGTSATLGITGLQTGDEADYYCATGDSGMTLVFGGGTKLTVL |
| 2.29 | 2.29 | anti-MOG MO3I-56 antibody (scFv, V domains shown) VH: QVQLVESGGGVVQPGSSLRLSCTASGFKFDDYAMHWVRQAPGKGLEWVSGISWNSGSIGYADSVKGRFTISRDNAKNSLYLQMNSLRAEDTASYYCAKSLPHYYDSPPYGMDVWGQGTLVTVSS VL: DIQLTQSPSSLSASVGDRVTITCRASQGISSALAWYQQKPGKAPKLLIYDASSLESGVPSRFSGSGSGTDFTLTISSLQPEDFATYYCQHRGTFGGGTKVDIK |
| 2.76 | 2.26 | anti-MOG MO3I-69 antibody (scFv, V domains shown) VH: DQVQLVQSGAEVKPGASVKVSCKASGYTFTYYYLHWVRQAPGQGLEWMGWINPNSGATIFAQKFQGRVTLTRDTSISTAYLDLSRLRSDDTAVYYCARASMAYQYHSDVDYWGLGTLVTVSS VL: QSVLTQPPSVSGAPGQRVTISCTGSSSNIGAGYDVHWYQQLPGTAPKLLIYGNSNRPSGVPDRFSGSKSGTSASLAITGLQAEDEADYYCQSYDSSLVVFGGGTKLTVL |
| 6.61 | 14.5 | anti-MOG MO3J-44 antibody (scFv, V domains shown) VH: QVQLVQSGAEVRKPGASVKISCQISGYNFISYTIQWVRQAPGQRPEWMGWINSGNGNTKYSQKFQGRVTFTRDTSTSTAYMELSSLRSEDTAVYYCARSGIGPWGQGTLVTVSS VL: EIVLTQPPDLQSVTPKKKVTITCRASQSIGNSLHWCQQKPDQSPKLLIKYASQSISGVPSRFSGSGSGTDFTLTINSLEAEDAATYYCHQSSSLPFTFGPGTKVDIK |
